From PMC11312540 (bioRxiv, 2024)

Target: SH3 domain of Src (residues 83–141) with C-terminal FLAG-tag (chicken, UniProt P00523 83-141)
Assay: bimane fluorescence

binding result: binds
B1: βarr1-MC-393 V70C labeled with monobromobimane (domain or fragment, rat, UniProt P29066 1-393, looked up)
chain: MGDKGTRVFKKASPNGKLTVYLGKRDFVDHIDLVDPVDGVVLVDPEYLKERRVYVTLTAAFRYGREDLDCLGLTFRKDLFVANVQSFPPAPEDKKPLTRLQERLIKKLGEHAYPFTFEIPPNLPSSVTLQPGPEDTGKAIGVDYEVKAFVAENLEEKIHKRNSVRLVIRKVQYAPERPGPQPTAETTRQFLMSDKPLHLEASLDKEIYYHGEPISVNVHVTNNTNKTVKKIKISVRQYADIVLFNTAQYKVPVAMEEADDTVAPSSTFSKVYTLTPFLANNREKRGLALDGKLKHEDTNLASSTLLREGANREILGIIVSYKVKVKLVVSRGGLLGDLASSDVAVELPFTLMHPKPKEEPPHREVPESETPVDTNLIELDTNDDDIVFEDFAR
modifications: monobromobimane (mBr) on C70
